Data on five molecules can be found in patent US20240262893A1.

Read-outs that look alike come from different tables or passages of the source.

Substrate in assay [1]: S protein of a SARS-CoV-2 delta lineage virus on pseudotyped virus (SARS-CoV-2 (delta lineage))
As to the kind of experiment: cell-based or functional assay.

The target in assay [2] is T1, SARS CoV-2 spike trimer protein from the parental Wuhan-Hu-1 isolate (extracellular domain, furin-cl (SARS-CoV-2 (Wuhan-Hu-1))). The following applies: remark: other sources report otherwise.
The target in assay [3] is T1, SARS CoV-2 spike trimer protein from …. Put plainly: ELISA, spike protein coated, IgG detected with anti-human Fc-HRP. The following applies: remark: other sources report otherwise. In general terms: An ELISA detects its analyte on a solid surface through an enzyme-linked reagent.
Assay [4] has the same target. The following applies: remark: other sources report otherwise. This is another data set of the same source.
The target of assay [5] is recombinant stabilized spike protein derived from the beta strain (formerly described as the South A (SARS-CoV-2 (B.1.351)), P0DTC2). The following applies: remark: other sources report otherwise.

B1: purified R2G3 CDR3-knob (after enterokinase cleavage from trxA) (peptide)
peptide: EGDKTCPDGYEHTCGCIGGCGCKRSACIGALCCQASLGGWLSDGETYTYEF
modifications: not checked
For B1, the pseudovirus neutralization, ng/mL (quantity not given) in assay [1] was found to be 302 ng/mL.

B2: R2D9 CDR3-knob (peptide)
peptide: ITHKTCPNGYNWFDRCCSWDGTCGDGCCSNRAWPSGNGRADSSIGETYGYEF
modifications: not checked
B2: the pseudovirus neutralization, ng/mL (quantity not given) in assay [1] is 66.8 ng/mL.

B3: SKM ultralong CDR3 chimeric bovine-human IgG1 antibody (antibody)
VH: QVQLRESGPSLVKPSQTLSLTCTASGFSLSDKAVGWVRQAPGKALEWLGSIDTGGNTGYNPGLKSRLSITKDNSKSQVSLSVSSVTTEDSATYYCTTVHQETLRSCPDGYIDNSGCTADWGCAALDCWRRRFGYHSTDPSHYTGATYIYTYSLHIDAWGQGLLVTVSS
VL: QAVLNQPSSVSGSLGQRVSITCSGSSSNVGNGYVSWYQLIPGSAPRTLIYGDTSRASGVPDRFSGSRSGNTATLTISSLQAEDEADYFCASAEDSSSNAVFGSGTTLTVL
A word on the EC50 (read off the curve): it is the concentration that produces a half-maximal response. One may read the EC50 as the concentration at which the effect is half-maximal. Regarding B3, the EC50 (read off the curve) in assay [2] came out at 200 pM. The EC50 in assay [3] was 190 pM.

B4: SKD ultralong CDR3 chimeric bovine-human IgG1 antibody (antibody)
VH: QVQLRESGPSLVKPSQTLSLTCTASGFSLSDKAVGWVRQAPGKALEWLGSIDTGGNTGYNPGLKSRLSITKDNSKSQVSLSVSSVTTEDSATYYCTTVHQRTSEKRSCPGGSSRRYPSGASCDVSGGACACYVSNCRGVLCPTLNEIVAYTYEWHVDAWGQGLLVTVSS
VL: QAVLNQPSSVSGSLGQRVSITCSGSSSNVGNGYVSWYQLIPGSAPRTLIYGDTSRASGVPDRFSGSRSGNTATLTISSLQAEDEADYFCASAEDSSSNAVFGSGTTLTVL
B4: in assay [3], the EC50 worked out at 160 pM.

B5: R4C1 ultralong CDR3 chimeric bovine-human IgG1 antibody (antibody)
VH: QVQLRESGPSLVKPSQTLSLTCTASGFSLSDKAVGWVRQAPGKPLEWLGSIDTAENTGYNPGLKSRLSITKDNSKSQVSLSVSSVTTEDSATYYCATVHQKTRKEKNCPDGYIYSSNTASGYDCGVWICRRVGSAFCSRTGDYTSPSEFDIYEFYVEGWGQGLLVTVSS
VL: QAVLNQPSSVSGSLGQRVSITCSGSSSNVGNGYVSWYQLIPGSAPRTLIYGDTSRASGVPDRFSGSRSGNTATLTISSLQAEDEADYFCASAEDSSSNAVFGSGTTLTVL
B5: the EC50 (read off the curve) in assay [4] was determined as 30 pM; in assay [2], 300 pM; in assay [5], 300 pM. Further, the EC50 in assay [3] was 200 pM.
